The labels stand for the following.
B1: Ia_S1_P3E.1_K3.1_C3.1_H3.1_[G2C]_A3.1_F3.1_T3.1 (ssRNA)
RNA: UCUCUUUCUAUAUAUCUCUU
B2: Ia_S2_P5E.1_K5.1_C5.1_H5.1_A5.1_F5.1_[A10G]_T5.1 (ssRNA)
RNA: UUUGAUUAAUAUGAUAUCGUUCUUUCUUGUAUUAUUGUUCUUUCUCGAUAUCAUAUUAAUCUUU
B3: Ib_S2_P5E.1_K5.1_C5.1_H5.1_[T3G]_[A4C]_A5.1_F5.1_T5.1 (ssRNA)
RNA: UUUGAUUAAUAUGAUAUCGUUCUUUCUUGGCUUAUUAUUCUUUCUCGAUAUCAUAUUAAUCUUU
B4: Ib_S2_P5E.1_K5.1_C5.1_H5.1_[T3C]_[A4C]_A5.1_F5.1_T5.1 (ssRNA)
RNA: UUUGAUUAAUAUGAUAUCGUUCUUUCUUGCCUUAUUAUUCUUUCUCGAUAUCAUAUUAAUCUUU
B5: Ib_S2_P5E.1_K5.1_C5.1_H5.1_A5.1_[T6A]_F5.1_[A10C]_T5.1 (ssRNA)
RNA: UUUGAUUAAUAUGAUAUCGUUCUUUCUUGUAUAAUUCUUCUUUCUCGAUAUCAUAUUAAUCUUU
B6: Ib_S2_P5E.1_K5.1_C5.1_H5.1_A5.1_[A7T]_F5.1_[A10G]_T5.1 (ssRNA)
RNA: UUUGAUUAAUAUGAUAUCGUUCUUUCUUGUAUUUUUGUUCUUUCUCGAUAUCAUAUUAAUCUUU
B7: Ib_S2_P5E.1_K5.1_C5.1_H5.1_[T1G]_[G2T]_A5.1_F5.1_T5.1 (ssRNA)
RNA: UUUGAUUAAUAUGAUAUCGUUCUUUCUGUUAUUAUUAUUCUUUCUCGAUAUCAUAUUAAUCUUU
B8: Ib_S2_P5E.1_K5.1_C5.1_H5.1_A5.1_[T6C]_F5.1_[A10T]_T5.1 (ssRNA)
RNA: UUUGAUUAAUAUGAUAUCGUUCUUUCUUGUAUCAUUUUUCUUUCUCGAUAUCAUAUUAAUCUUU
B9: Ib_S2_P5E.1_K5.1_C5.1_H5.1_[T1C]_[T3C]_A5.1_F5.1_T5.1 (ssRNA)
RNA: UUUGAUUAAUAUGAUAUCGUUCUUUCUCGCAUUAUUAUUCUUUCUCGAUAUCAUAUUAAUCUUU
B10: Ib_S2_P5E.1_K5.1_C5.1_H5.1_[G2T]_[A4T]_A5.1_F5.1_T5.1 (ssRNA)
RNA: UUUGAUUAAUAUGAUAUCGUUCUUUCUUUUUUUAUUAUUCUUUCUCGAUAUCAUAUUAAUCUUU
B11: Ib_S2_P5E.1_K5.1_C5.1_H5.1_[G2C]_[A4C]_A5.1_F5.1_T5.1 (ssRNA)
RNA: UUUGAUUAAUAUGAUAUCGUUCUUUCUUCUCUUAUUAUUCUUUCUCGAUAUCAUAUUAAUCUUU
B12: Ib_S2_P5E.1_K5.1_C5.1_H5.1_[G2A]_[A4C]_A5.1_F5.1_T5.1 (ssRNA)
RNA: UUUGAUUAAUAUGAUAUCGUUCUUUCUUAUCUUAUUAUUCUUUCUCGAUAUCAUAUUAAUCUUU
B13: Ib_S2_P5E.1_K5.1_C5.1_H5.1_[T1A]_A5.1_[A7G]_F5.1_T5.1 (ssRNA)
RNA: UUUGAUUAAUAUGAUAUCGUUCUUUCUAGUAUUGUUAUUCUUUCUCGAUAUCAUAUUAAUCUUU
B14: Ib_S2_P5E.1_K5.1_C5.1_H5.1_[T1A]_[G2T]_A5.1_F5.1_T5.1 (ssRNA)
RNA: UUUGAUUAAUAUGAUAUCGUUCUUUCUAUUAUUAUUAUUCUUUCUCGAUAUCAUAUUAAUCUUU
B15: Ib_S2_P5E.1_K5.1_C5.1_H5.1_[G2C]_[A4G]_A5.1_F5.1_T5.1 (ssRNA)
RNA: UUUGAUUAAUAUGAUAUCGUUCUUUCUUCUGUUAUUAUUCUUUCUCGAUAUCAUAUUAAUCUUU
B16: Ib_S2_P5E.1_K5.1_C5.1_H5.1_A5.1_[T6A]_F5.1_[A10G]_T5.1 (ssRNA)
RNA: UUUGAUUAAUAUGAUAUCGUUCUUUCUUGUAUAAUUGUUCUUUCUCGAUAUCAUAUUAAUCUUU
B17: Ib_S2_P5E.1_K5.1_C5.1_H5.1_A5.1_[T6A]_F5.1_[A10T]_T5.1 (ssRNA)
RNA: UUUGAUUAAUAUGAUAUCGUUCUUUCUUGUAUAAUUUUUCUUUCUCGAUAUCAUAUUAAUCUUU
B18: Ib_S2_P5E.1_K5.1_C5.1_H5.1_[T1G]_[G2C]_A5.1_F5.1_T5.1 (ssRNA)
RNA: UUUGAUUAAUAUGAUAUCGUUCUUUCUGCUAUUAUUAUUCUUUCUCGAUAUCAUAUUAAUCUUU
B19: Ia_S2_P5E.1_K5.1_C5.1_H5.1_A5.1_F5.1_[A10C]_T5.1 (ssRNA)
RNA: UUUGAUUAAUAUGAUAUCGUUCUUUCUUGUAUUAUUCUUCUUUCUCGAUAUCAUAUUAAUCUUU
B20: Ib_S2_P5E.1_K5.1_C5.1_H5.1_[T1A]_A5.1_[T5C]_F5.1_T5.1 (ssRNA)
RNA: UUUGAUUAAUAUGAUAUCGUUCUUUCUAGUACUAUUAUUCUUUCUCGAUAUCAUAUUAAUCUUU
B21: Ib_S2_P5E.1_K5.1_C5.1_H5.1_A5.1_[A7C]_F5.1_[A10C]_T5.1 (ssRNA)
RNA: UUUGAUUAAUAUGAUAUCGUUCUUUCUUGUAUUCUUCUUCUUUCUCGAUAUCAUAUUAAUCUUU
B22: Ib_S2_P5E.1_K5.1_C5.1_H5.1_[T1A]_A5.1_[T6C]_F5.1_T5.1 (ssRNA)
RNA: UUUGAUUAAUAUGAUAUCGUUCUUUCUAGUAUCAUUAUUCUUUCUCGAUAUCAUAUUAAUCUUU
B23: Ib_S2_P5E.1_K5.1_C5.1_H5.1_A5.1_[T5A]_F5.1_[A10T]_T5.1 (ssRNA)
RNA: UUUGAUUAAUAUGAUAUCGUUCUUUCUUGUAAUAUUUUUCUUUCUCGAUAUCAUAUUAAUCUUU
B24: Ib_S2_P5E.1_K5.1_C5.1_H5.1_[T1C]_[A4T]_A5.1_F5.1_T5.1 (ssRNA)
RNA: UUUGAUUAAUAUGAUAUCGUUCUUUCUCGUUUUAUUAUUCUUUCUCGAUAUCAUAUUAAUCUUU
B25: Ib_S2_P5E.1_K5.1_C5.1_H5.1_[T3C]_[A4T]_A5.1_F5.1_T5.1 (ssRNA)
RNA: UUUGAUUAAUAUGAUAUCGUUCUUUCUUGCUUUAUUAUUCUUUCUCGAUAUCAUAUUAAUCUUU
B26: Ib_S2_P5E.1_K5.1_C5.1_H5.1_[T1A]_[G2C]_A5.1_F5.1_T5.1 (ssRNA)
RNA: UUUGAUUAAUAUGAUAUCGUUCUUUCUACUAUUAUUAUUCUUUCUCGAUAUCAUAUUAAUCUUU
B27: Ib_S2_P5E.1_K5.1_C5.1_H5.1_A5.1_[T6C]_F5.1_[A10C]_T5.1 (ssRNA)
RNA: UUUGAUUAAUAUGAUAUCGUUCUUUCUUGUAUCAUUCUUCUUUCUCGAUAUCAUAUUAAUCUUU
B28: Ib_S2_P5E.1_K5.1_C5.1_H5.1_A5.1_[A7T]_F5.1_[A10C]_T5.1 (ssRNA)
RNA: UUUGAUUAAUAUGAUAUCGUUCUUUCUUGUAUUUUUCUUCUUUCUCGAUAUCAUAUUAAUCUUU
B29: Ia_S2_P5E.1_K5.1_C5.1_H5.1_A5.1_F5.1_[A10T]_T5.1 (ssRNA)
RNA: UUUGAUUAAUAUGAUAUCGUUCUUUCUUGUAUUAUUUUUCUUUCUCGAUAUCAUAUUAAUCUUU
B30: Ib_S2_P5E.1_K5.1_C5.1_H5.1_[T1C]_A5.1_[T5C]_F5.1_T5.1 (ssRNA)
RNA: UUUGAUUAAUAUGAUAUCGUUCUUUCUCGUACUAUUAUUCUUUCUCGAUAUCAUAUUAAUCUUU
B31: Ic_S2_P5E.1_K5.1_C5.1_H5.1_A5.1_[A7T]_F5.1_[A10T]_T5.1 (ssRNA)
RNA: UUUGAUUAAUAUGAUAUCGUUCUUUCUUGUAUUUUUUUUCUUUCUCGAUAUCAUAUUAAUCUUU
B32: Ib_S2_P5E.1_K5.1_C5.1_H5.1_[T3G]_[A4T]_A5.1_F5.1_T5.1 (ssRNA)
RNA: UUUGAUUAAUAUGAUAUCGUUCUUUCUUGGUUUAUUAUUCUUUCUCGAUAUCAUAUUAAUCUUU
B33: Ib_S2_P5E.1_K5.1_C5.1_H5.1_A5.1_[T5C]_F5.1_[A10T]_T5.1 (ssRNA)
RNA: UUUGAUUAAUAUGAUAUCGUUCUUUCUUGUACUAUUUUUCUUUCUCGAUAUCAUAUUAAUCUUU

For 33 molecules, Kd results are on record in paper PMC9352680, “A comprehensive thermodynamic model for RNA binding by the Saccharomyces cerevisiae Pumilio protein PUF4”.

Usually Kd stands for the equilibrium constant for the complex coming apart. Lower therefore signals a tighter complex.

Where only a bound is given, the exact number is not on record here.

This data set concerns the target T1, PUF4 RNA-binding domain (Saccharomyces cerevisiae, UniProt P25339 537-888).
T1 sequence: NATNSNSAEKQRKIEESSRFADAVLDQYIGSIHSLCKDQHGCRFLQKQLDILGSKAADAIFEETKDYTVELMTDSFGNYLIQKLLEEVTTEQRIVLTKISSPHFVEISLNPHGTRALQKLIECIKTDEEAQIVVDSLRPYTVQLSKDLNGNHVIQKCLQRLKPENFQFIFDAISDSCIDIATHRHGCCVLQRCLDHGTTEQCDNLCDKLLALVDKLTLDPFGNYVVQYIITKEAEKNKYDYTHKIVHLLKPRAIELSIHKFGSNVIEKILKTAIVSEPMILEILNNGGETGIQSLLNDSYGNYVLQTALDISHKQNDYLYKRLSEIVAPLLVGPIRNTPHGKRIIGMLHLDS
The experiment in a line: Mg; RNA-MaP; 20 mM Na-HEPES pH 7.4, 30 mM KOAc, 0.75 mM MgCl2, 0.1% Tween-20, 5% glycerol, 0.1 mg/mL BSA, 2 mM DTT; 25 C; 0.0125-409.6 nM protein. The following applies: tags: N-His6-TEV cleaved; C-SNAP kept, Cy3B-labelled; label: tethered on chip by stalled RNA polymerase.
Molecule B1 registered a Kd of more than 2300 nM.

For the molecule B2, binding was characterised by a dissociation constant (Kd) of 7.81 nM.

Molecule B3 gave a Kd of 1020 nM.

B4 came in with a Kd of 1540 nM.

B5: the Kd was 6.16 nM.

As to B6, binding was put at a Kd of 10.8 nM.

As to B7, the Kd was 39.1 nM.

In the case of B8, the Kd came out at 4.73 nM.

The molecule B9 showed a Kd of more than 2300 nM.

On to B10, for which the Kd is more than 2300 nM.

As for B11, the Kd is more than 2300 nM.

B12 had a Kd of 810 nM.

On to B13, for which the equilibrium dissociation constant (Kd) is more than 2300 nM.

Molecule B14 yielded a Kd of 1610 nM.

B15 gave a Kd of 522 nM.

B16 registered a Kd of 7.49 nM.

On to B17, for which binding was put at a Kd of 6.98 nM.

B18 yielded a Kd of 1120 nM.

B19 came in with a Kd of 12.7 nM. Against the preceding molecule, the Kd is about 88-fold lower.

On to B20, for which the Kd is more than 2300 nM.

On to B21, for which the Kd turned out to be 14.5 nM.

Consider B22, for which the Kd came to 1680 nM.

Regarding B23, the Kd turned out to be 9.98 nM.

For the molecule B24, binding was put at a Kd of 836 nM.

The molecule B25 had a Kd of 930 nM.

Take B26: the dissociation constant (Kd) was found to be 1400 nM.

Turning to B27, the Kd was found to be 6.38 nM.

In turn, B28 registered a Kd of 13 nM.

B29 registered a Kd of 7.7 nM.

Molecule B30 registered a Kd of 331 nM.

For B31, binding was put at a Kd of 18.3 nM. Against the preceding molecule, the Kd is about 18-fold lower.

The molecule B32 registered a Kd of 965 nM.

The molecule B33 registered a Kd of 3.1 nM. This Kd is about 310-fold lower than that of the molecule before.
